Measured values published in patent US20240301056A1 (APITBIO, published 2024).

Legend:
[1] = molecular target: T1, Mouse L1CAM on B16F1 cells (mouse, UniProt P11627 20-1260); experiment: flow cytometry on B16F1 cells, antibody 10 ug/ml, FITC anti-human IgG Fc secondary
T1 construct: whole, on cells; also called mouse L1CAM-positive cells
Experimental: In order to examine whether the variant antibodies selectively bind to human and mouse L1CAM, flow cytometry was performed using various types of cells. In this regard, as a comparative antibody, the Ab417 antibody which binds to human L1 CAM and mouse L1 CAM was used.
CHO-DG44 (ATCC No. PTA-3356) cells that are known to express no human L1CAM were cultured and used as a negative control. Also, cells expressing human L1CAM, human ovarian carcinoma, SKOV3 (ATCC No. HTB-77) and human non-small cell lung carcinoma, NCI-H522 (AYCC NO. CRL-5810) were cultured. As cells expressing mouse L1CAM, a melanoma cell line, B16F1 (ATCC No. CRL-6323) was cultured. The cultured cells were harvested using a dissociation buffer or 0.05% trypsin (GIBCO) for CHO-DG44 cell, resuspended in 1% PBA solution, and placed on ice for 20 minutes. The cells were then added to round bottom polystyrene test tube (Falcon) at a density of 4×10⁵ cells per tube. The purified antibodies were diluted in PBA solution at a concentration of 10 ug/ml, and 100 μl was added to each tube and mixed well. The tubes were placed in 4° C. for 1 hour. The secondary antibody which specifically binds to the Fc region of human IgG and is covalently linked with FITC (Sigma) was added to each tube at a ratio of 1:2000. The plate was wrapped with foil to block light and allowed to react at 4° C. for 1 hour. A staining reagent PI (propidium iodide, Sigma) was added at a ratio of 1:200 to evaluate cell viability. After all reactions were completed, FITC and PI fluorescent signals were detected in the cells.

[2] = molecular target: Human L1CAM (purified protein) (human) (UniProt P32004); experiment: BLI, Octet RED384; antibody captured on AHC sensor, human L1CAM 50-0.78 nM as analyte
[3] = molecular target: Human L1CAM (purified protein) (human) (UniProt P32004); experiment: BLI (Octet RED384), antibody captured on AHC sensor, human L1CAM in solution; upper end told of the variants as a group, tied to Ab4H5 by the KD values of the same paragraph (0.2 nM against 8 pM)
[4] = molecular target: Human L1CAM (purified protein) (human) (UniProt P32004); experiment: competitive ELISA; antibody pre-incubated with soluble human L1CAM, free antibody detected on coated human L1CAM
[5] = molecular target: Human L1CAM (purified protein) (human) (UniProt P32004); experiment: competitive ELISA; upper end of the range, tied to Ab2C2 by Table 9
[6] = molecular target: Human L1CAM (purified protein) (human) (UniProt P32004); experiment: competitive ELISA; lower end of the range, tied to Ab612 by Table 9

T1 sequence (P11627 20-1260): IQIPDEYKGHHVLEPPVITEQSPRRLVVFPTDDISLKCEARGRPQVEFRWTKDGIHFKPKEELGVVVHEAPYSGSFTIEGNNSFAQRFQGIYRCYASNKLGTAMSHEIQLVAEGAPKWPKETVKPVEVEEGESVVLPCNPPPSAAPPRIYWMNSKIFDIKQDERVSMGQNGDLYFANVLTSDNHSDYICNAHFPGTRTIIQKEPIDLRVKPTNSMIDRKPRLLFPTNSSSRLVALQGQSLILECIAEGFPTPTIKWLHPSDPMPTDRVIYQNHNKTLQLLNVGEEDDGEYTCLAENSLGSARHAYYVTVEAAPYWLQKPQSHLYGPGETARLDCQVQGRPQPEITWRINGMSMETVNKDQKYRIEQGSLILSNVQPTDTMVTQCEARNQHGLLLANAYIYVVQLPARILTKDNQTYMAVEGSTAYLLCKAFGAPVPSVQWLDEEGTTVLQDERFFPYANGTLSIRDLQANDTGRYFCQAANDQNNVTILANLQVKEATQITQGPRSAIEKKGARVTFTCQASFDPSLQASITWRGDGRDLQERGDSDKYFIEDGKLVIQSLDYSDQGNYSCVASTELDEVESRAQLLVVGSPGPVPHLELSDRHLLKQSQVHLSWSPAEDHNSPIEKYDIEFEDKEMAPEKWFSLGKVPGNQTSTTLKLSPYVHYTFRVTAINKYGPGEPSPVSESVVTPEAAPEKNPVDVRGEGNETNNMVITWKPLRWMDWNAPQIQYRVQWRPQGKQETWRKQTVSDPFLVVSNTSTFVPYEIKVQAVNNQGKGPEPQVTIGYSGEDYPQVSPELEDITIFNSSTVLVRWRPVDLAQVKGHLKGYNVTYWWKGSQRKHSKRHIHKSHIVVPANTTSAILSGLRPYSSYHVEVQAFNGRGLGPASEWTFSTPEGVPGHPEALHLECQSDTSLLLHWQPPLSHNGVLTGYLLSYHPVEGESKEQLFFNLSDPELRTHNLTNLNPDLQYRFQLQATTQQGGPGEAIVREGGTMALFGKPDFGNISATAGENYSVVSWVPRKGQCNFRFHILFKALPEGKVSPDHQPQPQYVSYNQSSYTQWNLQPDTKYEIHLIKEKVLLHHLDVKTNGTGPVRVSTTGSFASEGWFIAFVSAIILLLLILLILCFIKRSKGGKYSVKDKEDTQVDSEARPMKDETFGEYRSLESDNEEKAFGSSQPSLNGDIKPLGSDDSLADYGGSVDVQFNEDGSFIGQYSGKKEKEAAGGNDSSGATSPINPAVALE

Binder | binding result [1] | Kd [2] | koff [2] | kon [2] | fold increased affinity compared to Ab417 [3] | Affinity (K) [4] | fold higher binding affinity than Ab417 [5] | fold higher binding affinity than Ab417 [6]
Ab4H5 antibody (antibody, human IgG1, kappa, V domains shown, Whole human IgG1, kappa; also called Anti-L1CAM ("Ab4H5"); Ab4H5 mutant) VH: EVQLVESGGGVVQPGGSLRLSCAASGFTFSRFGMHWVRQAPGKGLEWVAFISNEGSNKYYADSVKGRFTISRDNSANTLYLQMNSLRAEDTAVYYCARGRAYGSGSLFDPWGQGTLVTVSS VL: DIQLTQSPSSLSASVGDRVTITCRASRTISSYVNWYRQRPGKAPESLIYAASNLHSGVPSRFSGSGSGTDFTLTISSLQPEDFATYYCQQAGFYTPWTFGQGTKLEIKR | binds | 0.00822 nM | 2.98e-06 s⁻¹ | 363000 M⁻¹ s⁻¹ | 25 fold | 60 pM |  | 
Ab4H6 antibody (antibody, human IgG1, kappa, V domains shown, Whole human IgG1, kappa; also called Anti-L1CAM ("Ab4H6"); Ab4H6 mutant) VH: EVQLVESGGGVVQPGGSLRLSCAASGFTFSRFGMHWVRQAPGKGLEWVAFISNEGSNKYYADSVKGRFTISRDNSANTLYLQMNSLRAEDTAVYYCARGRAYGSGSLFDPWGQGTLVTVSS VL: DIQLTQSPSSLSASVGDRVTITCRASRTISSYVNWYRQRPGKAPESLIYAASNLHSGVPSRFSGSGSGTDFTLTISSLQPEDFATYYCQQSLHFYPWTFGQGTKLEIKR | binds | 0.0741 nM | 2.77e-05 s⁻¹ | 373000 M⁻¹ s⁻¹ |  | 60 pM |  | 
Ab612 antibody (antibody, human IgG1, kappa, V domains shown, Whole human IgG1, kappa, purified on protein A; also called Anti-L1CAM ("Ab612")) VH: EVQLVESGGGVVQPGGSLRLSCAASGFTFSRFGMHWVRQAPGKGLEWVAFISNEGSNKYYADSVKGRFTISRDNSANTLYLQMNSLRAEDTAVYYCARGRAYGSGSLFDPWGQGTLVTVSS VL: DIQLTQSPSSLSASVGDRVTITCRASRTISSYVNWYRQRPGKAPESLIYAASNLHSGVPSRFSGSGSGTDFTLTISSLQPEDFATYYCQQSIGRGPVTFGQGTKLEIKR | binds | 0.105 nM | 3.28e-05 s⁻¹ | 313000 M⁻¹ s⁻¹ |  | 260 pM |  | 2 to 10 fold

Continued, values first:

binding result [1] | Kd [2] | koff [2] | kon [2] | fold increased affinity compared to Ab417 [3] | Affinity (K) [4] | fold higher binding affinity than Ab417 [5] | fold higher binding affinity than Ab417 [6] | Binder
binds | < 0.001 nM | < 1e-07 s⁻¹ | 344000 M⁻¹ s⁻¹ |  | 50 pM | 2 to 10 fold |  | Ab2C2 antibody (antibody, human IgG1, kappa, V domains shown, Whole human IgG1, kappa; also called Anti-L1CAM ("Ab2C2"); Ab2C2 mutant) VH: EVQLVESGGGVVQPGGSLRLSCAASGFTFSRFGMHWVRQAPGKGLEWVAFISNEGSNKYYADSVKGRFTISRDNSANTLYLQMNSLRAEDTAVYYCARGRAYGSGSLFDPWGQGTLVTVSS VL: DIQLTQSPSSLSASVGDRVTITCRASRTISSYVNWYRQRPGKAPESLIYAASNLHSGVPSRFSGSGSGTDFTLTISSLQPEDFATYYCQQAGFYSPWTFGQGTKLEIKR
binds | 0.096 nM | 3.94e-05 s⁻¹ | 411000 M⁻¹ s⁻¹ |  | 120 pM |  |  | Ab5D12 antibody (antibody, human IgG1, kappa, V domains shown, Whole human IgG1, kappa; also called Anti-L1CAM ("Ab5D12"); Ab5D12 mutant) VH: EVQLVESGGGVVQPGGSLRLSCAASGFTFSRFGMHWVRQAPGKGLEWVAFISNEGSNKYYADSVKGRFTISRDNSANTLYLQMNSLRAEDTAVYYCARGRAYGSGSLFDPWGQGTLVTVSS VL: DIQLTQSPSSLSASVGDRVTITCRASRTISSYVNWYRQRPGKAPESLIYAASNLHSGVPSRFSGSGSGTDFTLTISSLQPEDFATYYCQQSLVWYPWTFGQGTKLEIKR
